This is an account of results in the nanobody polyreactivity screen of Harvey et al. (2022).

The nature of this data set: yeast display, Sf9 membrane polyspecificity reagent, FACS + sequencing; frameworks hold sequencing errors. In a few lines:
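A nanobody's polyreactivity label depends on the gate it was sorted from. Yeast display cells were stained with 10% biotinylated, detergent-solubilized Sf9 membrane reagent for 1 hour at 4 °C, enriched on streptavidin microbeads and sorted by FACS. The low and high (top ~1%) gates were set on anti-HA fluorescence for expression and streptavidin fluorescence for reagent binding.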
With “QVQLVESGGGLVQAGGSLRLSCAASGSTFTVYAMGWYRLAPGKERELVAAISGSGGRTYYADSVKGRFTISRDNAKNTVYLQMNSLKPEDTAVYYCIARWGYRRGYWGQGTQVTVSS”, the “polyreactivity (PSR sort gate)” value was “high polyreactivity”. As to “QVQLVESGGGLVQAGGSLRLSCAASGRTFGHNAMGWYRQAPGKEREFVAAITYSGVRTFYADSVKGRFTISRDNAKNTVYLQMNSLKPEDTSVYYCATDWRRDYDYWGQGTQVTVSS”, the “polyreactivity (PSR sort gate)” value was “low polyreactivity”. Regarding “QVQLEESGGGLVQAGGSHRLSCAASGPTFRRNVMGWSRQAPGKEREFVAAITWSGGNTYYADSVKGRITISRDNAKYTVFLQMYSLKREDTAVYYCNARSAIWGWGYGSYDYWGLGTQVTVSS”, the “polyreactivity (PSR sort gate)” value is listed as “low polyreactivity”.

For the sequence “QVQLVESGGGLDQEGGSLRLSCAASGRIFARNAMGWYRQAPGKERELVAAIRNSDGSTYYADSVKGRFTISRDNAKNTVYLQMNSLKPEDTAVYYCAARSGSYRKYGYWGQGTQVTLSS”, the “polyreactivity (PSR sort gate)” value was “high polyreactivity”.

On to “QGQLVESGGGLGQAGGSLRLSCGASGRTFDSYAMGWYRPAPGKEREFVAAISYSGTSTYYAVSVTGRFTISRDKAKNTVYLQMNSLIPEDTAVYYCAKEYTFRQWGQGTQVTVSS”, for which the “polyreactivity (PSR sort gate)” value is on record as “low polyreactivity”. As for “QVQLVESGGGLVQAGGSLRLSCAASGIILYVNAMGCYRQAPGKEREFVAAISWGGGSTYYADSVKGRFTISRDNAKNTVYLQMNSLKREDTAVYYCAAEFWSGYPTYTYDYWGQGTQVTVSS”, the “polyreactivity (PSR sort gate)” value is reported as “low polyreactivity”. On to “QVQLVESGGGLVQAGGRLRLSCAASGRIFVYYAMGWYRQAPGKERELVAAINAGGSTNYADSVKGRFTISRDNAKNTVYLQMNSLKPEDTAVYYCATDRYWWSGFDYWGQGTQVTVSS”, for which the “polyreactivity (PSR sort gate)” value is given as “high polyreactivity”. For the sequence “QVQLVESGGGLVQAGGSLRLSCAASGSTLYTYAMGWYRQAPGKERELVATISWSGSSTYYADSVKGRFTISRDNAKNTVYLQMNSLKPEDTAVYDCAAPYHYWYRLDYWGQGTQVTVSA”, the “polyreactivity (PSR sort gate)” value is listed as “high polyreactivity”.

On to “QVQLVESGGGLVQAGGSLRLSCAASGNIFHFYAMGWYRQAPGKERELVATISWRGDGTYYADSVKGRFTISRDNAKYTVYLQMNSLKPEDTAVYYCAARGVWPEYDYWGQGTQVTVSS”, for which the “polyreactivity (PSR sort gate)” value is recorded as “low polyreactivity”. In the case of “QVQLVESGVGLVQAGGSLRLSCAASGSISDVYAMGVYRQAPGKERDLVAAITSGASTYYADSVKGRFTISLDNAKNTVYLQINSLKPEDTAVYYCSAGYSDWYYAAYNSWGQGTQVTVST”, the “polyreactivity (PSR sort gate)” value is “low polyreactivity”. With “QVQLVESGGGLVQAGGSLRLSCAASGFTSSAYAMGWYRQEPGKESELVAVISRSGGRTYYADSVKGRFTISRDNAKNTVYLQMNSLKPEDTADYYCAAEYGVYNIHFPGYDYWGQGTQVTVSS”, the “polyreactivity (PSR sort gate)” value is “high polyreactivity”. Under “QVQLVESGGGLVQAGGSLRLSCAASGRTFRSYAMGWYRQAPGKERELVAAISRRGGTTYYADSVKGRFTISRDNAKNTVYLQMNSLKPEDTAVYYCAATSYTYVLSPYRGDYWGQGTQVTVSS” stands “high polyreactivity”.

For “QVQLVESGGGLVQAGGSLRLSCAASGITFGANAMGWYRQAPGKERELVADITWSGGDTYYADSVKGRFTISRDTAKNTVYLQLHSLKPEDTAVYYCAVDTYIYTNRRYTKFDYWGQGTQVTVSS”, the “polyreactivity (PSR sort gate)” value is “low polyreactivity”. Turning to “QVQLVESGGGLVQAGGSLRLSCAASGRTFGRYAMGWYRQAPGKERELVAAITRGGGSTYYADSVKGRFTISRDNAKYTVYLQMNSLKPEDTAVYYCAARNFRSPYGYDYWGQGTQVTVSS”, the “polyreactivity (PSR sort gate)” value is “high polyreactivity”.

Take “QVQLVESGGGLVQAGGSLRLSCAASGSTFHIYAMGWYRQAPGKERELVAAINRSGGSTRYADSVKGRFTISRDNAKNTVYLQMNSLKPEDTAVYYCATKRSTGYYWGQGTQVTVSS”: the “polyreactivity (PSR sort gate)” value is on record as “high polyreactivity”. With “QVQLVESGGGLVQAGGSLRLSCVASGRTFGNKAMGWYRQAPGKERELVAAITSGGSTNYADSVKGCFTISRDNAKNTVYLQMNSLKPEDTAVYYCAAKQYRAGGGYWGQGTQVTVSS”, the “polyreactivity (PSR sort gate)” value is on record as “high polyreactivity”. “QGQHVESGGGLVQAGGRLRLSCAASGSTFGDNAMGWSRQAPGKERELVAAISSGSGGSTYYADSVKGRFTISRDNAKNTVYLQMNSLKPEDTAVYYCADVGPYGYYYGHYGYWGQGTQVTVSS”: the “polyreactivity (PSR sort gate)” value was “low polyreactivity”. In the case of “QVQLVESGGGLVQAGGSLRLSCAASGNIFAIYAMGWYIQAPGKEREFVAAIDWSVASTYYADSVKGRFTISRDNAKNTVYLQMNSLKPEDTAVYYCAAELYGLKYAYYLSYDYWGQGTQVTVSS”, the “polyreactivity (PSR sort gate)” value is recorded as “high polyreactivity”.

“QVQLVASGGGLVQAGGSLRLSCAASGYTLFRNAMGWYRQAPGKERELVAAISRSGARTYYADSVKGRFTISRDNAKNTVYLQMNSLLPEDTAVYYCAAVIKWTKDDYWGQGTQVTVSS”: the “polyreactivity (PSR sort gate)” value is recorded as “high polyreactivity”. Consider “QVQLVESGGGLVQAGGSLRLSCAASGSIFYRNVMGWYRQAPGKERELVAAISWSGGSTYYADSVKGRFTISRDKSKNTVYLQMNSLKPEDTAVYYCAADIPKTCYPYAFEYWGQGTQVTVSS”, for which the “polyreactivity (PSR sort gate)” value was “low polyreactivity”.

As for “QVQLVESGGGLVQAGGSLRLSCAASGFTFDPYAMGWYRQAPGKERELVAAISFSGGSTSYADSVKGRFTISRDNAKNTVYLHMNSLKLEDTAVYYCNAEYDWWSYWYDYWGQGTQVTVSS”, the “polyreactivity (PSR sort gate)” value is reported as “high polyreactivity”. With “QVQLVESGGGLVQAGGSLRLSCAASGRIFVTYAMGWYRHAPGKERELVAAITSDGSTSYADSVKGRFTISRDNAKNTGYLQMNRLKPEDTAVYYSAKDFFEHSPVSHTYSSSKYEYWGQGTQVTVSS”, the “polyreactivity (PSR sort gate)” value is “low polyreactivity”.

Regarding “QVQLVESGGGLVQAGGSLRLSCAASGRIFDVNAMGWYRQAPGKERELVAAITDSDGSTYYADSVKGRFTISRDNAKNTVYLQMNSLKPEDTAVYYCAATQEPVTPQPYGYWGQATQVTVSS”, the “polyreactivity (PSR sort gate)” value is given as “low polyreactivity”.

As for “QVQLVESGGGLVQAGGSLRLSCAASGSIFKWYTMGWYRQAPGKERELVAAITWGGGSTYYADSVKGRFTISRDNEKNTVYLQMNSLKPEDTAVYYCNREGWHYGPYGYWGQGTLVTVSS”, the “polyreactivity (PSR sort gate)” value is reported as “low polyreactivity”. As for “QVQLVESGGGLVQARGSLRLSCAASGSTFVQNAMGWYRQAPGKEREFVAAIRVSGDNTYYADSVKGRFTISLDNAKNTVYLQMNSLKPEDTAVYYFAATGTFVGSVDYWGQGTQVTVSS”, the entry is “low polyreactivity”; as for “QVQLVETGGGLFQAGGSLRLSCAASGFSFGRYAMGWYRQAPGKERELVAAISRGGSSTYYADSVKGRFTISRDTAKNTVYLQMNSLKPEDTAVYYCNKVIIWARFDYWGQGTQVTVSS”, “high polyreactivity”. As to “QVQLVESGGGLVQAGCSLRLSCAASGRIFWVNAMGWYRQAPGKERELVAVISSGGSTHYADSVKGRFTISRDNAKYTVSLQMNSLKPEDTAGYYCAADRYYVGYYYWGQGTQVTVSS”, the “polyreactivity (PSR sort gate)” value is listed as “low polyreactivity”. Under “QVQLVESGGGLVQAGGSLRLICAASGFTIWWYAMGWYRQAPGKERELVATITSGGRTYYADSVKGRFTISRDNAKNTVYLQMNSLKPEDTAVYYCAAESEVGYVYDPMYYLGQGTQVTVSS” stands “high polyreactivity”; under “QVQLVESGGGLVQAGGSLRISCAASGFTFHTYAMGWYRQAPGKERELVAAIDSSGGITYYADSVKGRFTISRDNAKNTVYLQMTSLKPEDTAVYYCAAVFLLFGFEWSYDYWGQGTQVTVSS”, “low polyreactivity”; under “QVQLVESGGGLVQAGGSLRLSCAASGSISSLNTMGWYRQAPGKERELVASISRRGGSTYYADSVKGRFTISRDNAKNTVYLQINSLKPEDTAVFYCAARGVGGTVPTRYDYWGQGTQVTVSS”, “high polyreactivity”. Under “QVQLVESGGGLVQAGGSLRLSCAASGRIFNRYAMGWYRQAPGKERELVAAITSGGDTNYADSVKGRFTISRDNAKNTVYLQMNSLKPEDTAVYYCNARSRGRASGYDYWGQGTQVTVSS” stands “high polyreactivity”. As for “QVQLVESGGGLVQAGGSLRFSCAASGITFVDYAMGWYRQAPGKEREFVAGISESGGSTYYADSVKGRFTISRDNAKNTVYLQMNSLKPEDTAVYYCAADPYVDSYDSWGQGTQVTVSS”, the “polyreactivity (PSR sort gate)” value is on record as “low polyreactivity”. As for “QVQLVESGGGLVQAGGSLRLSCAASGIIYTYYAMGWYRQAPGKERELVARISSSGGRTYYADSVKGRFTISRDNAKNTVYLQMNSLKPEDTAVYYCAAAIVSYGRNDYWGQGTQVTVSS”, the “polyreactivity (PSR sort gate)” value is listed as “high polyreactivity”. Under “QVQLVESGGGLVQAGGSLRLSCAASGFTFSYYAMGWYRQAPGKERELVASISRSGNTYYADSVKGRFTISRDNAKNTVYLQMNSLKPEDTAVYYCAAKRKSYYSYNFDYWGQGTQVTVSS” stands “high polyreactivity”; under “QDQLVESGGGLVHAGGSLRLSSAASGLTFSYYAMGWYRQAPGKERELVAAIDYSGGTTYADSVKGRFTISRDNAKNTVYLQMNSLKPEDTAVYYCADAPDGWFASGDEYWGHGTQVTVSS”, “high polyreactivity”; under “QVQLVESGGGLVQAGGSLRLSCAASGSTFSRNAMGWYRQAPGKERELVAAITSSGGSTYYADSVKGRFTISRDNAKNTVYLQMNSLKPEDTAVYYCAAPRRRHFDYWGQGTQVTVSS”, “high polyreactivity”. As for “QVQLVESGGGVVQAGGSLRLSCAASGRTIYFYAMGWYRQAPGKERELVAAITGSGGRTYYADSVKGRFTISRDHAKNTVYLQMNSLKTEDTAVYYCAAVPPPLARLYVAAKRFDSWGQGTQVTVSS”, the entry is “low polyreactivity”; as for “QVQLVESGGGLVQAGGSLRLSCAASGSTFYVNSMGWYRQAPGKERELVAGISFSDGSTYYADSVKGRFTISRDNAKNTVYLQMNSLKPEDTAVYYCATVGALDIYYGYGYWVQGTQVTVSS”, “low polyreactivity”; as for “QVQLVESGGGLVQAGRSLRLSCAASGSTFSHYAMGWYRQAPGKERELFATITGTGVRTYYADSVKGRFTISRDNAKNTVYLQMNSLKPEATAVYFCAVPPSIRGAQAQPWMDYWGQGTQVTVSS”, “low polyreactivity”. Take “QVQLVESGGGLVQAGGSLRLSCAASGFTYYYYAMGWSRQAPGKVRELVAAITYSGGSTYYADSVKGRFTISRDNAKNTVYLLMNSLKPEDTAVYYCNAVVGRWFPFNLSDYWGQGTQVTVSS”: the “polyreactivity (PSR sort gate)” value is “low polyreactivity”. As for “QVQLVESGGGLVQAGGSLRLSFAASGYTFAGNAMGWYRQAPGKERELVAVITYSGVSTYYADSVKGRFTISRDNAKNTVYLQMNSLKPEDTAVYYCNAVRERYASDYWGQGTQVTVSS”, the entry is “low polyreactivity”.
